The values that follow come from paper PMC3048900.

The target in one data set is Glu11 (UniProt position 354, IAGFIEGGWTG). Put plainly: NMR. As to conditions: DPC micelle-bound helical hairpin.
For another data set, the target named is Asp19 (UniProt position 362, WTGMIDGWYGY). Put plainly: NMR. As to conditions: DPC micelle-bound helical hairpin.

For orientation: pKa means the pH at which an ionisable group is half protonated. Regarding “Hemagglutinin HA2 fusion peptide HAfp23 (Influenza A virus (serotype H1; strain not stated))”, the pKa in the data set with Glu11 worked out at 5.31±0.01; with Asp19, 4.35±0.02.
